Data as given in US7960155B1, “Cytochrome p450 monooxygenases and their use for oxidizing organic compounds” (BASF Aktiengesellschaft, priority 1999, dated 2011).

Test system: blue pigment (indigo/indirubin) production
Conditions: 2-liter flask containing 300 ml of TB medium for the triple mutant

B1: WT: wild-type cytochrome P450 monooxygenase BM-3 from Bacillus megaterium (SEQ ID NO:2) (protein, listed as Bacillus megaterium)
chain: TIKEMPQPKTFGELKNLPLLNTDKPVQALMKIADELGEIFKFEAPGRVTRYLSSQRLIKEACDESRFDKNLSQALKFVRDFAGDGLFTSWTHEKNWKKAHNILLPSFSQQAMKGYHAMMVDIAVQLVQKWERLNADEHIEVPEDMTRLTLDTIGLCGFNYRFNSFYRDQPHPFITSMVRALDEAMNKLQRANPDDPAYDENKRQFQEDIKVMNDLVDKIIADRKASGEQSDDLLTHMLNGKDPETGEPLDDENIRYQIITFLIAGHETTSGLLSFALYFLVKNPHVLQKAAEEAARVLVDPVPSYKQVKQLKYVGMVLNEALRLWPTAPAFSLYAKEDTVLGGEYPLEKGDELMVLIPQLHRDKTIWGDDVEEFRPERFENPSAIPQHAFKPFGNGQRACIGQQFALHEATLVLGMMLKHFDFEDHTNYELDIKETLTLKPEGFVVKAKSKKIPLGGIPSPSTEQSAKKVRKKAENAHNTPLLVLYGSNMGTAEGTARDLADIAMSKGFAPQVATLDSHAGNLPREGAVLIVTASYNGHPPDNAKQFVDWLDQASADEVKGVRYSVFGCGDKNWATTYQKVPAFIDETLAAKGAENIADRGEADASDDFEGTYEEWREHMWSDVAAYFNLDIENSEDNKSTLSLQFVDSAADMPLAKMHGAFSTNVVASKELQQPGSARSTRHLEIELPKEASYQEGDHLGVIPRNYEGIVNRVTARFGLDASQQIRLEAEEEKLAHLPLAKTVSVEELLQYVELQDPVTRTQLRAMAAKTVCPPHKVELEALLEKQAYKEQVLAKRLTMLELLEKYPACEMKFSEFIALLPSIRPRYYSISSSPRVDEKQASITVSVVSGEAWSGYGEYKGIASNYLAELQEGDTITCFISTPQSEFTLPKDPETPLIMVGPGTGVAPFRGFVQARKQLKEQGQSLGEAHLYFGCRSPHEDYLYQEELENAQSEGIITLHTAFSRMPNQPKTYVQHVMEQDGKKLIELLDQGAHFYICGDGSQMAPAVEATLMKSYADVHQVSEADARLWLQQLEEKGRYAKDVWAG
  blue pigment production in culture: does not have the ability to produce the blue indigo-containing pigment
